From publication PMC9321280 (Nature Communications, 2022)

Target: T1, GFP-fused TcsH CROPs (residues 1832–2618), His-tagged (Paeniclostridium sordellii, UniProt M9ZTT7 1832-2618)
T1 construct: source: Escherichia coli (pET28a vector), purified as His-tagged protein
T1 sequence: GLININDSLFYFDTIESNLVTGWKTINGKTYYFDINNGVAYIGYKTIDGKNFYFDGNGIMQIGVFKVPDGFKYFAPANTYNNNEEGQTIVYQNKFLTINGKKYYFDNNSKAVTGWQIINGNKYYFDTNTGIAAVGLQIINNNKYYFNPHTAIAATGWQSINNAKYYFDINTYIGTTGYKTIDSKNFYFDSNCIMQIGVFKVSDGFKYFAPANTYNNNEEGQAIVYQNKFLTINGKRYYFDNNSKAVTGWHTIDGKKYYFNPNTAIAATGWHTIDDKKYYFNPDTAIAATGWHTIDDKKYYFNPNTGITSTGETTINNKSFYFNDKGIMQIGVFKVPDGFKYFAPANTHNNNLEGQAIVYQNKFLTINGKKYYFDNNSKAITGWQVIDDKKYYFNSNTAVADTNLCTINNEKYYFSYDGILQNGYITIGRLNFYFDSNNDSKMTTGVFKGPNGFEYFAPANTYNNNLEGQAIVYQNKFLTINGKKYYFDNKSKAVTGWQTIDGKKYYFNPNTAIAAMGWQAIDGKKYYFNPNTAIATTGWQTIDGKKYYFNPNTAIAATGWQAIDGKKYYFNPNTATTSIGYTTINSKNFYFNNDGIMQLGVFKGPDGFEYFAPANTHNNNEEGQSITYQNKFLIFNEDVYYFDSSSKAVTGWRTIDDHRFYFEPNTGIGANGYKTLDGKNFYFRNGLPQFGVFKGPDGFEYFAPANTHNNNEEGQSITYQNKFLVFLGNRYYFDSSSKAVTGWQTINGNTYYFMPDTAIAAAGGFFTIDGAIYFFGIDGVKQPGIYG
Test: BLI
Conditions: both partners purified

B1: Fc-tagged TMPRSS2^106-492/[change] (ectodomain of human TMPRSS2 with [change]) (Fc fusion)
chain: WKFMGSKCSNSGIECDSSGTCINPSNWCDGVSHCPGGEDENRCVRLYGPNFILQVYSSQRKSWHPVCQDDWNENYGRAACRDMGYKNNFYSSQGIVDDSGSTSFMKLNTSAGNVDIYKKLYHSDACSSKAVVSLRCIACGVNLNSSRQSQIVGGESALPGAWPWQVSLHVQNVHVCGGSIITPEWIVTAAHCVEKPLNNPWHWTAFAGILRQSFMFYGAGYQVEKVISHPNYDSKTKNNDIALMKLQKPLTFNDLVKPVCLPNPGMMLQPEQLCWISGWGATEEKGKTSEVLNAAKVLLIETQRCNSRYVYDNLITPAMICAGFLQGNVDSCQGDSGGPLVTSKNNIWWLIGDTSWGSGCAKAYRPGVYGNVMVFTDWIYRQMRADG
Kd: ~5.23 nM
